{"source": "paper PMC11053944", "about": "“FRET Assays for the Identification of C. albicans HSP90-Sba1 and Human HSP90α-p23 Binding Inhibitors” (Pharmaceuticals, 2024)", "key": {"[1]": {"biological_target": "C. albicans HSP90 (without fluorescent protein) (C. albicans) (UniProt P46598)"}, "[2]": {"biological_target": "C. albicans HSP90 (without fluorescent protein) (C. albicans) (UniProt P46598)", "remark": "listed apart in the source"}}, "data": [{"substance": "C. albicans Aha1 (from UniProt A0A1D8PU72 1-346) (natural protein)", "values": [{"measurement": "HSP90 ATPase activity (ADP-Glo), 2.5 µM HSP90 with 1-20 µM Aha1, 1 mM ATP, 1 h at 30 °C; fold of HSP90 alone", "setting": "[1]", "result": 7, "unit": "fold"}, {"measurement": "HSP90 ATPase activity (ADP-Glo), 2.5 µM HSP90 with Aha1 (20 µM) and Sba1 (20 µM) together, 1 mM ATP; fold of HSP90 alone", "setting": "[2]", "result": 1.9, "unit": "fold"}]}]}
